# Laboratory results from patent US20230048960A1 (University of Washington, published 2023).
# Square brackets hold non-standard residues; d marks the D form.
# B1: AP506d (peptide)
# peptide: Ac-[dR]G[dN]W[dN]E[dS]K[dM][dN][dE][dY][dY]G[dW]M[dL]M[dC]T[dM]G[dR]-NH2
# modifications: also: disulfide-linked homodimer (Cys19 to Cys19 of other copy), disulfide at 19, other end not in the chain
# B2: AP502m (peptide)
# peptide: Ac-RGN[dW]N[dE]S[dK]M[dN][dE][dY][dY]GW[dM]L[dM]C[dT]MGR-NH2
# SMILES: CSCC[C@H](NC(=O)[C@@H](CCCCN)NC(=O)[C@H](CO)NC(=O)[C@@H](CCC(=O)O)NC(=O)[C@H](CC(N)=O)NC(=O)[C@@H](Cc1c[nH]c2ccccc12)NC(=O)[C@H](CC(N)=O)NC(=O)CNC(=O)[C@H](CCCNC(=N)N)NC(C)=O)C(=O)N[C@H](CC(N)=O)C(=O)N[C@H](CCC(=O)O)C(=O)N[C@H](Cc1ccc(O)cc1)C(=O)N[C@H](Cc1ccc(O)cc1)C(=O)NCC(=O)N[C@@H](Cc1c[nH]c2ccccc12)C(=O)N[C@H](CCSC)C(=O)N[C@@H](CC(C)C)C(=O)N[C@H](CCSC)C(=O)N[C@@H](CS)C(=O)N[C@@H](C(=O)N[C@@H](CCSC)C(=O)NCC(=O)N[C@@H](CCCNC(=N)N)C(N)=O)[C@H](C)O
# B3: AP506m (peptide)
# peptide: Ac-[dR]G[dN]W[dN]E[dS]K[dM][dN][dE][dY][dY]G[dW]M[dL]M[dC]T[dM]G[dR]-NH2
# SMILES: CSCC[C@H](NC(=O)[C@@H](Cc1c[nH]c2ccccc12)NC(=O)CNC(=O)[C@@H](Cc1ccc(O)cc1)NC(=O)[C@@H](Cc1ccc(O)cc1)NC(=O)[C@@H](CCC(=O)O)NC(=O)[C@@H](CC(N)=O)NC(=O)[C@@H](CCSC)NC(=O)[C@H](CCCCN)NC(=O)[C@@H](CO)NC(=O)[C@H](CCC(=O)O)NC(=O)[C@@H](CC(N)=O)NC(=O)[C@H](Cc1c[nH]c2ccccc12)NC(=O)[C@@H](CC(N)=O)NC(=O)CNC(=O)[C@@H](CCCNC(=N)N)NC(C)=O)C(=O)N[C@H](CC(C)C)C(=O)N[C@@H](CCSC)C(=O)N[C@H](CS)C(=O)N[C@H](C(=O)N[C@H](CCSC)C(=O)NCC(=O)N[C@H](CCCNC(=N)N)C(N)=O)[C@@H](C)O
# B4: AP520m (peptide)
# peptide: Ac-RGE[dM]N[dL]S[dW]MNEYSGW[dT]M[dN]C[dK]MGR-NH2
# SMILES: CSCC[C@H](NC(=O)[C@@H](CCCCN)NC(=O)[C@H](CS)NC(=O)[C@@H](CC(N)=O)NC(=O)[C@H](CCSC)NC(=O)[C@H](NC(=O)[C@H](Cc1c[nH]c2ccccc12)NC(=O)CNC(=O)[C@H](CO)NC(=O)[C@H](Cc1ccc(O)cc1)NC(=O)[C@H](CCC(=O)O)NC(=O)[C@H](CC(N)=O)NC(=O)[C@H](CCSC)NC(=O)[C@@H](Cc1c[nH]c2ccccc12)NC(=O)[C@H](CO)NC(=O)[C@@H](CC(C)C)NC(=O)[C@H](CC(N)=O)NC(=O)[C@@H](CCSC)NC(=O)[C@H](CCC(=O)O)NC(=O)CNC(=O)[C@H](CCCNC(=N)N)NC(C)=O)[C@H](C)O)C(=O)NCC(=O)N[C@@H](CCCNC(=N)N)C(N)=O
# B5: AP504m (peptide)
# peptide: Ac-RGN[dC]N[dE]S[dK]MNEYYGW[dM]L[dM]L[dT]MGR-NH2
# SMILES: CSCC[C@H](NC(=O)[C@@H](CCCCN)NC(=O)[C@H](CO)NC(=O)[C@@H](CCC(=O)O)NC(=O)[C@H](CC(N)=O)NC(=O)[C@@H](CS)NC(=O)[C@H](CC(N)=O)NC(=O)CNC(=O)[C@H](CCCNC(=N)N)NC(C)=O)C(=O)N[C@@H](CC(N)=O)C(=O)N[C@@H](CCC(=O)O)C(=O)N[C@@H](Cc1ccc(O)cc1)C(=O)N[C@@H](Cc1ccc(O)cc1)C(=O)NCC(=O)N[C@@H](Cc1c[nH]c2ccccc12)C(=O)N[C@H](CCSC)C(=O)N[C@@H](CC(C)C)C(=O)N[C@H](CCSC)C(=O)N[C@@H](CC(C)C)C(=O)N[C@@H](C(=O)N[C@@H](CCSC)C(=O)NCC(=O)N[C@@H](CCCNC(=N)N)C(N)=O)[C@H](C)O
# B6: AP504d (peptide)
# peptide: Ac-RGN[dC]N[dE]S[dK]MNEYYGW[dM]L[dM]L[dT]MGR-NH2
# modifications: also: disulfide-linked homodimer (Cys4 to Cys4 of other copy), disulfide at 4, other end not in the chain
# B7: AP503m (peptide)
# peptide: Ac-RGN[dW]N[dE]S[dK]MNEYYGW[dM]L[dM]T[dC]MGR-NH2
# SMILES: CSCC[C@H](NC(=O)[C@@H](CCCCN)NC(=O)[C@H](CO)NC(=O)[C@@H](CCC(=O)O)NC(=O)[C@H](CC(N)=O)NC(=O)[C@@H](Cc1c[nH]c2ccccc12)NC(=O)[C@H](CC(N)=O)NC(=O)CNC(=O)[C@H](CCCNC(=N)N)NC(C)=O)C(=O)N[C@@H](CC(N)=O)C(=O)N[C@@H](CCC(=O)O)C(=O)N[C@@H](Cc1ccc(O)cc1)C(=O)N[C@@H](Cc1ccc(O)cc1)C(=O)NCC(=O)N[C@@H](Cc1c[nH]c2ccccc12)C(=O)N[C@H](CCSC)C(=O)N[C@@H](CC(C)C)C(=O)N[C@H](CCSC)C(=O)N[C@H](C(=O)N[C@H](CS)C(=O)N[C@@H](CCSC)C(=O)NCC(=O)N[C@@H](CCCNC(=N)N)C(N)=O)[C@@H](C)O
# B8: AP516m (peptide)
# peptide: Ac-[dR]G[dE]M[dN]Y[dF]W[dM][dN][dE][dY][dY]G[dW]T[dM]N[dC]K[dM]G[dR]-NH2
# SMILES: CSCC[C@H](NC(=O)[C@@H](CCC(=O)O)NC(=O)CNC(=O)[C@@H](CCCNC(=N)N)NC(C)=O)C(=O)N[C@H](CC(N)=O)C(=O)N[C@@H](Cc1ccc(O)cc1)C(=O)N[C@H](Cc1ccccc1)C(=O)N[C@@H](Cc1c[nH]c2ccccc12)C(=O)N[C@H](CCSC)C(=O)N[C@H](CC(N)=O)C(=O)N[C@H](CCC(=O)O)C(=O)N[C@H](Cc1ccc(O)cc1)C(=O)N[C@H](Cc1ccc(O)cc1)C(=O)NCC(=O)N[C@H](Cc1c[nH]c2ccccc12)C(=O)N[C@H](C(=O)N[C@H](CCSC)C(=O)N[C@@H](CC(N)=O)C(=O)N[C@H](CS)C(=O)N[C@@H](CCCCN)C(=O)N[C@H](CCSC)C(=O)NCC(=O)N[C@H](CCCNC(=N)N)C(N)=O)[C@@H](C)O
# B9: AP516d (peptide)
# peptide: Ac-[dR]G[dE]M[dN]Y[dF]W[dM][dN][dE][dY][dY]G[dW]T[dM]N[dC]K[dM]G[dR]-NH2
# modifications: also: disulfide-linked homodimer (Cys19 to Cys19 of other copy), disulfide at 19, other end not in the chain
# B10: AP503d (peptide)
# peptide: Ac-RGN[dW]N[dE]S[dK]MNEYYGW[dM]L[dM]T[dC]MGR-NH2
# modifications: also: disulfide-linked homodimer (Cys20 to Cys20 of other copy), disulfide at 20, other end not in the chain
# B11: AP505d (peptide)
# peptide: Ac-RGN[dW]C[dE]S[dK]MNEYYGW[dM]L[dM]L[dT]MGR-NH2
# modifications: not fully specified (residue 5); printed as RGNwCeSkMNEYYGWmLmLtMGR; also: disulfide-linked homodimer via Cys5
# Biological target: Aβ42 (UniProt P05067 672-713)
# Sequence (P05067 672-713 limits assumed): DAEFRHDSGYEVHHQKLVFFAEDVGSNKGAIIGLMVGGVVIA
# Test: cell-based or functional assay
"% inhibition of fibril formation (ThT), AP:Aβ42 1:1","% inhibition of fibril formation (ThT), AP:Aβ42 1:10","% inhibition of fibril formation (ThT), AP:Aβ42 1:100",Binder
100%,100%,49.1%,B1
23.8%,0%,0%,B2
67.6%,0%,0%,B3
47%,33.1%,0%,B4
30%,19.2%,0%,B5
100%,100%,64.3%,B6
61.8%,16.2%,0%,B7
76.6%,56.4%,0%,B8
26.8%,16.4%,0%,Ac-RGN[dW]C[dE]S[dK]MNEYYGW[dM]L[dM]L[dT]MGR-NH2 (not fully specified (residue 5); printed as RGNwCeSkMNEYYGWmLmLtMGR) [AP505m]
100%,98.2%,51.3%,B9
100%,88.4%,47.1%,Ac-RGN[dW]N[dE]S[dK]M[dN][dE][dY][dY]GW[dM]L[dM]C[dT]MGR-NH2 (also: disulfide-linked homodimer via Cys19) [AP502d]
100%,91.2%,45.3%,Ac-RGE[dM]N[dL]S[dW]MNEYSGW[dT]M[dN]C[dK]MGR-NH2 (also: disulfide-linked homodimer via Cys19) [AP520d]
100%,100%,70.1%,B10
100%,79.5%,51.4%,B11
